Patent US11802878B2, “Protein sequencing method and reagents” (The Governing Council of the University of Toronto, priority 2009, dated 2023)

Legend:
Leu-peptides = test: Phage binding to immobilized peptides or control peptides, ELISA (FIG. 6B); settings: negative controls BSA, SA, NA
Excerpt: Selected peptide ligands during were synthesized with C-terminal biotin-lysine residues. The biotinylated peptides were immobilized on neutravidin-coated wells of a microtiter plate by passive adsorption, alongside additional control proteins.
The ClpS domains were N-terminally FLAG-tagged as shown in FIG. 6A so that display of the recombinant phage coat protein would be detectable (using commercial anti-FLAG antibody), even if the domains were not able to bind ligand. […] The expressed proteins also contained an ST2 secretion signal that is cleaved off and a C-terminal phage coat protein p3 (that is, fused to the C-terminus/residue 106 of E. coli ClpS) as shown in FIG. 6C.
The selection and ELISA protocols are very similar. Briefly, each well of a 96-well Maxisorp plate was coated overnight at 4° C. with 100 μl of 10 μg/ml neutravidin in PBS, or 1:500 dilution of anti-FLAG antibody. Plates were washed three times with PBS+0.50% TWEEN-20 (PT) and blocked for 1 hour at room temperature with 200 ul of PBS+0.5% BSA (PB). Plates were washed again three times with PT. […]
(§1) For the ELISA readouts, 100 μl of pH adjusted phage supernatant or polyethylene glycol (PEG) precipitated concentrated phage was added to appropriate wells and allowed to bind for 1 hour at 4° C. […] The reaction was stopped by addition of 90 μl of 1M H3PO4 and the absorbance at A450 nm was read.

[1] = system: immobilized biotinylated peptide, N-terminal amino acid R (X-SDGMFTAGSLIGK(biotin)); test: Phage ELISA, binding to immobilized peptide, N-terminal R
Procedure: (§2) Given the discovery that the specificity pocket library was functionally robust, selections against synthetic peptide ligands were carried out using this library. The specificity pocket library was selected against 20 biotinylated peptides, each with a different N-terminal residue atop a common leader sequence (X-SDGMFTAGSLIGK(biotin)) (SEQ ID NO: 4). The peptides were immobilized individually to the bottom wells of a microtiter plate. […] Consequently, ClpS mutant variants that prefer other residues in addition to the ligand ‘bait’ would bind those competing peptides in solution and simply be washed away. Only selective variants that bound to the immobilized target(s) were amplified during each subsequent round of selection.
(§3) To evaluate the specificity and selectivity of individual clones, both wild-type ClpS and the selected variants' binding to each of the biotinylated peptides independently were tested. The same approach was also used to monitor the progress of the selections and to prioritize particular pools of phage for further investigation.
(§4) Promising single clones were picked from the selection pools and their specificity was evaluated using the same panel of biotinylated peptides and various amounts of phage supernatant. […] Accordingly, Variant 1 represents a selective N-terminal amino acid capture probe for tryptophan useful for the sequencing methods described herein. Variant 1 also represents a useful scaffold for performing further generation and selection of variants with desirable properties for use as additional N-terminal amino acid capture probes.
(§5) The selection and ELISA protocols are very similar. Briefly, each well of a 96-well Maxisorp plate was coated overnight at 4° C. with 100 μl of 10 μg/ml neutravidin in PBS, or 1:500 dilution of anti-FLAG antibody. […]
as §1

[2] = system: immobilized biotinylated peptide, N-terminal amino acid L (X-SDGMFTAGSLIGK(biotin)); test: Phage ELISA, binding to immobilized peptide, N-terminal L
Procedure: as §2, §3, §4, §5, §1

[3] = system: immobilized biotinylated peptide, N-terminal amino acid I (X-SDGMFTAGSLIGK(biotin)); test: Phage ELISA, binding to immobilized peptide, N-terminal I
Procedure: as §2, §3, §4, §5, §1

[4] = system: immobilized biotinylated peptide, N-terminal amino acid Q (X-SDGMFTAGSLIGK(biotin)); test: Phage ELISA, binding to immobilized peptide, N-terminal Q
Procedure: as §2, §3, §4, §5, §1

Leu-peptide = settings: reported value, wildtype ClpS:Leu-peptide interaction; read-out: dissociation constant (Kd); cited from earlier work

B1: ClpS WT: truncated wildtype E. coli ClpS polypeptide, 84 amino acids, SEQ ID NO: 1, displayed on phage (protein, listed as Escherichia coli)
chain: KPPSMYKVILVNDDYTPMEFVIDVLQKFFSYDVERATQLMLAVHYQGKAICGVFTAEVAETKVAMVNKYARENEHPLLCTLEKA
modifications: phage display
binding of phage-displayed ClpS to immobilized peptides (Leu-peptides; listed as ClpS from E. coli): binds two of the Leu-peptides specifically, without cross reactivity to any of the negative controls
binding of phage-displayed ClpS to immobilized peptides (Leu-peptides; listed as ClpS from Escherichia coli): able to bind its cognate ligand (immobilized Leucine)
phage ELISA binding signal ([1]; N-terminal R, phage 10X, sub Fab): 0.13
phage ELISA binding signal ([1]; N-terminal amino acid R, Table 1): 0.13
phage ELISA binding signal ([2]; N-terminal L, phage 10X, sub Fab): 1.57
phage ELISA binding signal ([2]; N-terminal amino acid L, Table 1): 1.57
phage ELISA binding signal ([3]; N-terminal I, phage 10X, sub Fab): −0.16
phage ELISA binding signal ([3]; N-terminal amino acid I, Table 1): −0.016
phage ELISA binding signal ([4]; N-terminal Q, phage 10X, sub Fab): −0.18
phage ELISA binding signal ([4]; N-terminal amino acid Q, Table 1): −0.18
Kd (Leu-peptide): 4.8 µM
